Key:
[1] = test system: HeLa Kyoto; assay: thermal stability score vs G1/S (z-score of summed log2 fold changes over temperatures); higher = more thermally stable than in G1/S
[2] = test system: HeLa Kyoto; assay: solubility change mitosis vs G1/S (difference of NP-40 vs SDS log2 ratios) (log2 ratio difference); higher = more soluble in mitosis
[3] = test system: HeLa Kyoto; assay: solubility in G1/S (NP-40 vs SDS abundance) (log2 ratio); higher = more soluble; conditions: cell cycle stage: G1/S
[4] = test system: HeLa Kyoto; assay: melting temperature (median over replicates), in situ; higher = more thermally stable
[5] = cell cycle stage: early G1 (4.5 h after nocodazole release)
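Throughout, for melting temperature (median over replicates), in situ: HeLa Kyoto cells synchronized by double thymidine or nocodazole block, proteins quantified by TMT10plex mass spectrometry, three independent biological replicates.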
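Throughout, for solubility change mitosis vs G1/S (difference of NP-40 vs SDS log2 ratios): synchronized HeLa Kyoto cells (double thymidine block for G1/S, nocodazole release for mitosis), protein amounts in NP-40 versus SDS lysates quantified by mass spectrometry, three biological replicates.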
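Throughout, for solubility in G1/S (NP-40 vs SDS abundance): HeLa Kyoto cells arrested at G1/S by double thymidine block, proteins quantified by TMT10plex mass spectrometry in mild NP-40 versus SDS extracts, three biological replicates.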
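Throughout, for thermal stability score vs G1/S (z-score of summed log2 fold changes over temperatures): synchronized HeLa Kyoto cells, proteins quantified by TMT10plex mass spectrometry, three biological replicates, mitosis taken 0.5 h after nocodazole release, G1/S directly after double thymidine block.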

Sequence	thermal stability score [1, 5]	thermal stability score ([1]; cell cycle stage: mitosis)	solubility change mitosis (log2) [2]	solubility in G1/S (log2) [3]	melting temperature ([4]; cell cycle stage: G1/S) [°C]	melting temperature ([4]; cell cycle stage: mitosis) [°C]
MEEEDESRGKTEESGEDRGDGPPDRDPTLSPSAFILRAIQQAVGSSLQGDLPNDKDGSRCHGLRWRRCRSPRSEPRSQESGGTDTATVLDMATDSFLAGLVSVLDPPDTWVPSRLDLRPGESEDMLELVAEVRIGDRDPIPLPVPSLLPRLRAWRTGKTVSPQSNSSRPTCARHLTLGTGDGGPAPPPAPSSASSSPSPSPSSSSPSPPPPPPPPAPPAPPAPRFDIYDPFHPTDEAYSPPPAPEQKYDPFEPTGSNPSSSAGTPSPEEEEEEEEEEEEEEEDEEEEEGLSQSISRISETLAGIYDDNSLSQDFPGDESPRPDAQPTQPTPAPGTPPQVDSTRADGAMRRRVFVVGTEAEACREGKVSVEVVTAGGAALPPPLLPPGDSEIEEGEIVQPEEEPRLALSLFRPGGRAARPTPAASATPTAQPLPQPPAPRAPEGDDFLSLHAESDGEGALQVDLGEPAPAPPAADSRWGGLDLRRKILTQRRERYRQRSPSPAPAPAPAAAAGPPTRKKSRRERKRSGEAKEAASSSSGTQPAPPAPASPWDSKKHRSRDRKPGSHASSSARRRSRSRSRSRSTRRRSRSTDRRRGGSRRSRSREKRRRRRRSASPPPATSSSSSSRRERHRGKHRDGGGSKKKKKRSRSRGEKRSGDGSEKAPAPAPPPSGSTSCGDRDSRRRGAVPPSIQDLTDHDLFAIKRTITVGRLDKSDPRGPSPAPASSPKREVLYDSEGLSGEERGGKSSQKDRRRSGAASSSSSSREKGSRRKALDGGDRDRDRDRDRDRDRSSKKARPPKESAPSSGPPPKPPVSSGSGSSSSSSSCSSRKVKLQSKVAVLIREGVSSTTPAKDAASAGLGSIGVKFSRDRESRSPFLKPDERAPTEMAKAAPGSTKPKKTKVKAKAGAKKTKGTKGKTKPSKTRKKVRSGGGSGGSGGQVSLKKSKADSCSQAAGTKGAEETSWSGEERAAKVPSTPPPKAAPPPPALTPDSQTVDSSCKTPEVSFLPEEATEEAGVRGGAEEEEEEEEEEEEEEEEEEQQPATTTATSTAAAAPSTAPSAGSTAGDSGAEDGPASRVSQLPTLPPPMPWNLPAGVDCTTSGVLALTALLFKMEEANLASRAKAQELIQATNQILSHRKPPSSLGMTPAPVPTSLGLPPGPSSYLLPGSLPLGGCGSTPPTPTGLAATSDKREGSSSSEGRGDTDKYLKKLHTQERAVEEVKLAIKPYYQKKDITKEEYKDILRKAVHKICHSKSGEINPVKVSNLVRAYVQRYRYFRKHGRKPGDPPGPPRPPKEPGPPDKGGPGLPLPPL [SCAF1]	-0.0585	1.29	1.41	-1.69	49.5	50.2
MEEHSYIQKELDLQNGSLEEDSVVHSVENDSQNMMESLSPKKYSSSLRFKANGDYSGSYLTLSQPVPAKRSPSPLGTSVRSSPSLAKIQGSKQFSYDGTDKNIPMKPPTPLLNTTSSLSGYPLGRADFDHYTGRDSERALRLSEKPPYSKYSSRHKSHDNVYSLGGLEGRKASGSLLAMWNGSSLSDAGPPPISRSGAASMPSSPKQARKMSIQDSLALQPKLTRHKELASENINLRTRKYSSSSLSHMGAYSRSLPRLYRATENQLTPLSLPPRNSLGNSKRTKLGEKDLPHSVIDNDNYLNFSSLSSGALPYKTSASEGNPYVSSTLSVPASPRVARKMLLASTSSCASDDFDQASYVGTNPSHSLLAGESDRVFATRRNFSCGSVEFDEADLESLRQASGTPQPALRERKSSISSISGRDDLMDYHRRQREERLREQEMERLERQRLETILSLCAEYTKPDSRLSTGTTVEDVQKINKELEKLQLSDEESVFEEALMSPDTRYRCHRKDSLPDADLASCGSLSQSSASFFTPRSTRNDELLSDLTRTPPPPSSTFPKASSESSYLSILPKTPEGISEEQRSQELAAMEETRIVILNNLEELKQKIKDINDQMDESFRELDMECALLDGEQKSETTELMKEKEILDHLNRKIAELEKNIVGEKTKEKVKLDAEREKLERLQELYSEQKTQLDNCPESMREQLQQQLKRDADLLDVESKHFEDLEFQQLEHESRLDEEKENLTQQLLREVAEYQRNIVSRKEKISALKKQANHIVQQAQREQDHFVKEKNNLIMMLQREKENLCNLEKKYSSLSGGKGFPVNPNTLKEGYISVNEINEPCGNSTNLSPSTQFPADADAVATEPATAVLASQPQSKEHFRSLEERKKQHKEGLYLSDTLPRKKTTSSISPHFSSATMGRSITPKAHLPLGQSNSCGSVLPPSLAAMAKDSESRRMLRGYNHQQMSEGHRQKSEFYNRTASESNVYLNSFHYPDHSYKDQAFDTLSLDSSDSMETSISACSPDNISSASTSNIARIEEMERLLKQAHAEKTRLLESREREMEAKKRALEEEKRRREILEKRLQEETSQRQKLIEKEVKIRERQRAQARPLTRYLPVRKEDFDLRSHVETAGHNIDTCYHVSITEKTCRGFLIKMGGKIKTWKKRWFVFDRNKRTFSYYADKHETKLKGVIYFQAIEEVYYDHLKNANKSPNPLLTFSVKTHDRIYYMVAPSPEAMRIWMDVIVTGAEGYTHFLL [PHLDB2]	-0.165	1.44	0.164	-0.28	48.9	49.1
